In US20010041350A1:

Molecular target: truncated polypeptides of the in vitro translation of the DNA ligase III cDNA
Experiment: pull-down: XRCC1-His incubated with [35S]methionine-labeled in vitro translation product, captured on NTA-agarose beads, eluted with 200 mM imidazole

With “Histidine-tagged recombinant XRCC1 protein (from UniProt P18887 1-633)” the percent of translation product recovered with XRCC1-His was < 90%.
